Measured values: article PMC11551761, “Probing the mechanism of nick searching by LIG1 at the single-molecule level”

B1: nick DNA 3'-dG:C/5'-Bio (BLI) (dsDNA)
DNA 1: CATGGGCGGCATGAACCGGAGGCCCATCCTCACC
DNA 2: GGTGAGGATGGGCCTCCGGTTCATGCCGCCCATG
modifications: single nick
B2: 34-mer single-nick DNA (Up-OH + Down / Template T) (dsDNA)
DNA 1: CATGGGCGGCATGAACCA
DNA 2: GAGGCCCATCCTCACC
DNA 3: GGTGAGGATGGGCCTCTGGTTCATGCCGCCCATG
modifications: 5'-phosphate on Down; 3'-OH at nick

Columns and labels:
LIG1 C-terminal = LIG1 C-terminal (human, UniProt P18858 261-919, del1-260); test: BLI; no Mg2+ listed in buffer; 1 mM HEPES pH 7.4, 20 mM NaCl, 0.02% BSA, 0.002% Tween 20 (BLI, C-Trap, TIRF; TIRF plus oxygen scavenger and 10 mM Trolox); BLI sensors hydrated at 20 C, assay; conditions: protein: recombinant; tags: 6xHis (pET-24b); AF488 or Cy5 labelled for single-molecule assays; Methods says 3'); nicked duplex
LIG1 full-length [1] = biological target: T1, LIG1 full-length (human, UniProt P18858 1-919); test: as above; conditions: protein: recombinant; tags: 6xHis (pET-24b); AF488 or Cy5 labelled for single-molecule assays; Methods says 3'); nicked duplex
LIG1 full-length [2] = biological target: T1, LIG1 full-length; test: single-molecule TIRF; no Mg2+; bound lifetimes 0.9 s (70%), 8 s (30%); unbound 42 s; 1 mM HEPES pH 7.4, 20 mM NaCl, 0.02% BSA, 0.002% Tween 20 (BLI, C-Trap, TIRF; TIRF plus oxygen scavenger and 10 mM Trolox); BLI sensors hydrated at 20 C, assay; conditions: protein: recombinant; tags: 6xHis (pET-24b); AF488 or Cy5 labelled for single-molecule assays; label: 5'-biotin on Up; 3'-AF488 on Down; nicked duplex, blunt; nick between 18-nt Up and 16-nt Down on 34-nt template

T1 sequence (P18858 whole entry): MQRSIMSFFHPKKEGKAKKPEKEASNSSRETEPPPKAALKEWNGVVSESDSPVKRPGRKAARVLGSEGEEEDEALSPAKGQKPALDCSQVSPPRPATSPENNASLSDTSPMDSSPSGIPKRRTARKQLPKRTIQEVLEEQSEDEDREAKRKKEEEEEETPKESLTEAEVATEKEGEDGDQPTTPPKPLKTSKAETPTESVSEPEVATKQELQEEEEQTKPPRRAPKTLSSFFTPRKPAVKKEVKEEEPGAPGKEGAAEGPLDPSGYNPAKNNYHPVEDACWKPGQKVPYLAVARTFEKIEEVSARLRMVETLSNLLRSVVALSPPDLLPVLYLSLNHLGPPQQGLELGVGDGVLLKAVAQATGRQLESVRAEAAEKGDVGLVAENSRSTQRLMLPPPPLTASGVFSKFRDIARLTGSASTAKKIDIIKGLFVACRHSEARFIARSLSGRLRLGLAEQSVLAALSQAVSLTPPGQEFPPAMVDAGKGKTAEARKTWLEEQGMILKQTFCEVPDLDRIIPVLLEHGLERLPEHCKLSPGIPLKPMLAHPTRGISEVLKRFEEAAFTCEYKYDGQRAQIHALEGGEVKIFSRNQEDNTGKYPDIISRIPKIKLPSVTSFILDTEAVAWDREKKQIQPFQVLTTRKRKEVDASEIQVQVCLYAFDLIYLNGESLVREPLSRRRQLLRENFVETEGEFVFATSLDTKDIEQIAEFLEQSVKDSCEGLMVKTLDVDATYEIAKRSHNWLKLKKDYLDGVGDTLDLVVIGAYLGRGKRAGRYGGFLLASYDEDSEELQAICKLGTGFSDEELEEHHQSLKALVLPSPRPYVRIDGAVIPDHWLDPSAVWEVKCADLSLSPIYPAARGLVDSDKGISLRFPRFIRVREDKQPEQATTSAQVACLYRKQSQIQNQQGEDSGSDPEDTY
LIG1 C-terminal, sequence (P18858 261-919, stated change not applied): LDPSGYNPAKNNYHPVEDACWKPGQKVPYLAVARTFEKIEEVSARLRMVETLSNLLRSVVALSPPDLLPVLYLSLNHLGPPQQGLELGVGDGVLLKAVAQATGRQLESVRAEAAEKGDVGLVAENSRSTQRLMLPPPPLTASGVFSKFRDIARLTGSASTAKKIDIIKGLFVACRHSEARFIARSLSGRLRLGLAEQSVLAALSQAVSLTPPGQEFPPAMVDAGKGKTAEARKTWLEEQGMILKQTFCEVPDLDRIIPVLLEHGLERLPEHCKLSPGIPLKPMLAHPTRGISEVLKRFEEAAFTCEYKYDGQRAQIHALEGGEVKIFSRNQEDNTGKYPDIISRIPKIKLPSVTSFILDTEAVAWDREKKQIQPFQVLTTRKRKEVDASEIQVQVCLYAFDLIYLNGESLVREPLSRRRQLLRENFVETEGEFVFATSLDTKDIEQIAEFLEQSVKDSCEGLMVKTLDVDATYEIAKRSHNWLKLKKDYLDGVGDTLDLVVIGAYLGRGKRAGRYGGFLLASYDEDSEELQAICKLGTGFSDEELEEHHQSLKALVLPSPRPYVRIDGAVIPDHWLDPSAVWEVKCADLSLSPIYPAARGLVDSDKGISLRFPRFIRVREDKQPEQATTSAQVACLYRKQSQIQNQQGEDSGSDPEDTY

Binder | Kd (LIG1 C-terminal) [nM] | Kd (LIG1 full-length [1]) [nM] | binding result (LIG1 full-length [2])
B1 | 196 | 95 | –
B2 | – | – | binds
